Laboratory results as given in patent publication US20260266848A1, “COMPOSITIONS AND METHODS FOR DIAGNOSING AND TREATING DYSTONIA” (Duke University, priority 2023, published 2026).

B1: Stxbp2 (protein, UniProt Q64324 1-593, looked up)
Syntaxin-binding protein 2: MAPLGLKAVVGEKILSGVIRSVKKDGEWKVLIMDHPSMRILSSCCKMSDILAEGITIVEDINKRREPIPSLEAIYLLSPTEKSVQALIADFQGTPTFTYKAAHIFFTDTCPEPLFSELGRSRLAKAVKTLKEIHLAFLPYEAQVFSLDAPHSTYNLYCPFRAGERGRQLDALAQQIATLCATLQEYPSIRYRKGPEDTAQLAHAVLAKLNAFKADTPSLGEGPEKTRSQLLIMDRAADPVSPLLHELTFQAMAYDLLDIEQDTYRYETTGLSESREKAVLLDEDDDLWVELRHMHIADVSKKVTELLKTFCESKRLTTDKANIKDLSHILKKMPQYQKELNKYSTHLHLADDCMKHFKGSVEKLCSVEQDLAMGSDAEGEKIKDAMKLIVPVLLDASVPPYDKIRVLLLYILLRNGVSEENLAKLIQHANVQSYSSLIRNLEQLGGTVTNSAGSGTSSRLERRERMEPTYQLSRWSPVIKDVMEDVVEDRLDRKLWPFVSDPAPVPSSQAAVSARFGHWHKNKAGVEARAGPRLIVYIVGGVAMSEMRAAYEVTRATEGKWEVLIGSSHILTPTRFLDDLKTLDQKLEGVALP
B2: Cyb5r3 (protein, UniProt Q9DCN2 2-301, looked up)
NADH-cytochrome b5 reductase 3: GAQLSTLSHVVLSPVWFIYSLFMKLFQRSTPAITLENPDIKYPLRLIDKEVISPDTRRFRFALPSPQHILGLPIGQHIYLSTRIDGNLVIRPYTPVSSDDDKGFVDLVVKVYFKDTHPKFPAGGKMSQYLENMKIGDTIEFRGPNGLLVYQGKGKFAIRADKKSNPVVRTVKSVGMIAGGTGITPMLQVIRAVLKDPNDHTVCYLLFANQSEKDILLRPELEELRNEHSARFKLWYTVDKAPDAWDYSQGFVNEEMIRDHLPTPGEEPLILMCGPPPMIQFACLPNLERVGHPKERCFTF
B3: Eef1e1 (protein, UniProt Q9D1M4 2-174, looked up)
Eukaryotic translation …: AAAAELRLLEKSLGLKPGNKYSAQGERQIPVLQTNNGPSLMGLSTIATHLVKQASKEHLLGSTAEEKAMVQQWLEFRVTRVDGHSSKEDTQTLLKDLNSYLEDKVYLAGHNITLADILLYYGLHRFIVDLTVQEKEKYLNVSRWFCHIQHYPDIRQHLSSIVFIKNRLYANSH
B4: Psmd4 (protein, UniProt O35226 1-376, looked up)
26S proteasome non-ATPase …: MVLESTMVCVDNSEYMRNGDFLPTRLQAQQDAVNIVCHSKTRSNPENNVGLITLANDCEVLTTLTPDTGRILSKLHTVQPKGKITFCTGIRVAHLALKHRQGKNHKMRIIAFVGSPVEDNEKDLVKLAKRLKKEKVNVDIINFGEEEVNTEKLTAFVNTLNGKDGTGSHLVTVPPGPSLADALISSPILAGEGGAMLGLGASDFEFGVDPSADPELALALRVSMEEQRQRQEEEARRAAAASAAEAGIATPGTEDSDDALLKMTINQQEFGRPGLPDLSSMTEEEQIAYAMQMSLQGTEFSQESADMDASSAMDTSDPVKEEDDYDVMQDPEFLQSVLENLPGVDPNNAAIRSVMGALASQATKDGKNDKKEEEKK
B5: Fh (protein, UniProt P97807 42-507, looked up)
Fumarate hydratase, …: ASQNSFRVEFDTFGELKVPTDKYYGAQTVRSTMNFKIGGATERMPIPVIQAFGILKRAAAEVNQEYGLDPKIASAIMKAADEVAEGKLNDHFPLVVWQTGSGTQTNMNVNEVISNRAIEMLGGELGSKKPVHPNDHVNKSQSSNDTFPTAMHIAAAVEVHKVLLPGLQKLHDALSAKSKEFAQVIKIGRTHTQDAVPLTLGQEFSGYVQQVQYAMVRIKAAMPRIYELAAGGTAVGTGLNTRIGFAEKVAAKVAALTGLPFVTAPNKFEALAAHDALVELSGAMNTAACSLMKIANDIRFLGSGPRSGLGELILPENEPGSSIMPGKVNPTQCEAMTMVAAQVMGNHVAVTVGGSNGHFELNVFKPMMIKNVLHSARLLGDASVSFTDNCVVGIQANTERINKLMNESLMLVTALNPHIGYDKAAKIAKTAHKNGSTLKETAIELGYLTAEQFDEWVKPKDMLGPK
B6: Ddx3x (protein, UniProt Q62167 2-662, looked up)
ATP-dependent RNA helicase …: SHVAVENALGLDQQFAGLDLNSSDNQSGGSTASKGRYIPPHLRNREATKGFYDKDSSGWSSSKDKDAYSSFGSRGDSRGKSSFFGDRGSGSRGRFDDRGRGDYDGIGGRGDRSGFGKFERGGNSRWCDKSDEDDWSKPLPPSERLEQELFSGGNTGINFEKYDDIPVEATGNNCPPHIESFSDVEMGEIIMGNIELTRYTRPTPVQKHAIPIIKEKRDLMACAQTGSGKTAAFLLPILSQIYADGPGEALRAMKENGRYGRRKQYPISLVLAPTRELAVQIYEEARKFSYRSRVRPCVVYGGAEIGQQIRDLERGCHLLVATPGRLVDMMERGKIGLDFCKYLVLDEADRMLDMGFEPQIRRIVEQDTMPPKGVRHTMMFSATFPKEIQMLARDFLDEYIFLAVGRVGSTSENITQKVVWVEEIDKRSFLLDLLNATGKDSLTLVFVETKKGADSLEDFLYHEGYACTSIHGDRSQRDREEALHQFRSGKSPILVATAVAARGLDISNVKHVINFDLPSDIEEYVHRIGRTGRVGNLGLATSFFNERNINITKDLLDLLVEAKQEVPSWLENMAFEHHYKGSSRGRSKSSRFSGGFGARDYRQSSGASSSSFSSSRASSSRSGGGGHGGSRGFGGGGYGGFYNSDGYGGNYNSQGVDWWGN
B7: Eif4b (protein, UniProt Q8BGD9 1-611, looked up)
Eukaryotic translation …: MAASAKKKNKKGKTISLTDFLAEDGGTGGGSTYVPKPVSWADETDDLEGDVSTTWHSNDDDVYRAPPIDRSILPTAPRAAREPNIDRSRLPKSPPYTAFLGNLPYDVTEDSIKDFFRGLNISAVRLPREPSNPDRLKGFGYAEFEDLDSLLSALSLNEESLGNRRIRVDVADQAQDKDRDDRSFGRDRNRDSDKTDTDWRARPTTDSFDDYPPRRGDDSFGDKYRDRYDSDRYRDGYRDGYRDGPRRDMDRYGGRDRYDDRGSRDYDRGYDSRIGSGRRAFGSGYRRDDDYRGGGDRYEDRYDRRDDRSWSSRDDYSRDDYRRDDRGPPQRPRLNLKPRSAPKEDDASASTSQSSRAASIFGGAKPVDTAAREREVEERLQKEQEKLQRQLDEPKLDRRPRERHPSWRSEETQERERSRTGSESSQTGASATSGRNTRRRESEKSLENETLNKEEDCHSPTSKPPKPDQPLKVMPAPPPKENAWVKRSSNPPARSQSSDTEQPSPTSGGGKVAAVQPPEEGPSRKDGNKVDVVGATQGQAGSCSRGPGDGGSRDHWKDLDRKDGKKDQDSRSAPEPKKPEENPASKFSSASKYAALSVDGEDEDEGDDCTE
B8: Col6a1 (protein, UniProt Q04857 20-1025, looked up)
Collagen alpha-1(VI) chain: QDIQGSKAIAFQDCPVDLFFVLDTSESVALRLKPYGALVDKVKSFTKRFIDNLRDRYYRCDRNLVWNAGALHYSDEVEIIRGLTRMPSGRDELKASVDAVKYFGKGTYTDCAIKKGLEELLIGGSHLKENKYLIVVTDGHPLEGYKEPCGGLEDAVNEAKHLGIKVFSVAITPDHLEPRLSIIATDHTYRRNFTAADWGHSRDAEEVISQTIDTIVDMIKNNVEQVCCSFECQAARGPPGPRGDPGYEGERGKPGLPGEKGEAGDPGRPGDLGPVGYQGMKGEKGSRGEKGSRGPKGYKGEKGKRGIDGVDGMKGETGYPGLPGCKGSPGFDGIQGPPGPKGDAGAFGMKGEKGEAGADGEAGRPGNSGSPGDEGDPGEPGPPGEKGEAGDEGNAGPDGAPGERGGPGERGPRGTPGVRGPRGDPGEAGPQGDQGREGPVGIPGDSGEAGPIGPKGYRGDEGPPGPEGLRGAPGPVGPPGDPGLMGERGEDGPPGNGTEGFPGFPGYPGNRGPPGLNGTKGYPGLKGDEGEVGDPGEDNNDISPRGVKGAKGYRGPEGPQGPPGHVGPPGPDECEILDIIMKMCSCCECTCGPIDILFVLDSSESIGLQNFEIAKDFIIKVIDRLSKDELVKFEPGQSHAGVVQYSHNQMQEHVDMRSPNVRNAQDFKEAVKKLQWMAGGTFTGEALQYTRDRLLPPTQNNRIALVITDGRSDTQRDTTPLSVLCGADIQVVSVGIKDVFGFVAGSDQLNVISCQGLSQGRPGISLVKENYAELLDDGFLKNITAQICIDKKCPDYTCPITFSSPADITILLDSSASVGSHNFETTKVFAKRLAERFLSAGRADPSQDVRVAVVQYSGQGQQQPGRAALQFLQNYTVLASSVDSMDFINDATDVNDALSYVTRFYREASSGATKKRVLLFSDGNSQGATAEAIEKAVQEAQRAGIEIFVVVVGPQVNEPHIRVLVTGKTAEYDVAFGERHLFRVPNYQALLRGVLYQTVSRKVALG

Each molecule was assayed on DYT-TOR1A MEF EVs (assay: Quantitative LC-MS/MS proteomics of EVs from drug-treated DYT-TOR1A MEF cultures (ritonavir, salubrinal)). Conditions: EV protein abundance, DYT + RTV (ritonavir) vs DYT, direction compared with DYT/WT.
Format: cell-based, mouse
Set-up: key to RTV Corrective Direction / RTV Corrective Direction, Grwd1 / RTV Corrective Direction, Srrm2 / RTV Corrective Direction, Rbm17 / RTV Corrective Direction, Dcaf8 / RTV Corrective Direction, Edil3 / RTV Corrective Direction, Timp3 / RTV Corrective Direction, Heatr3 / RTV Corrective Direction, Brd4 / RTV Corrective Direction, P3h4 / RTV Corrective Direction, Pacsin3 / RTV Corrective Direction, Naa50 / RTV Corrective Direction, Lpar6 / RTV Corrective Direction, Ndrg1 / RTV Corrective Direction, Kntc1 / RTV Corrective Direction, Cdk11b / RTV Corrective Direction, Sumo1 / RTV Corrective Direction, Lsm4 / RTV Corrective Direction, Hmga2 / RTV Corrective Direction, Cstf1 / RTV Corrective Direction, Tes / RTV Corrective Direction, Sbno1 / RTV Corrective Direction, Unc119b / RTV Corrective Direction, Cfdp1 / RTV Corrective Direction, Sec61b: YES = protein abundance effect opposite to DYT/WT

Row | Molecule | RTV Corrective Direction
1 | B1 | YES
2 | B2 | YES
3 | B3 | YES
4 | B4 | YES
5 | B5 | YES
6 | B6 | YES
7 | B7 | YES
8 | B8 | YES

Same assay, conditions: EV protein abundance, ritonavir (RTV)-treated DYT vs DYT

Row | Molecule | DYT + RTV/DYT Cohen's d
9 | B1 | 1.82
10 | B2 | 0.64
11 | B3 | 16.90
12 | B4 | −0.60
13 | B5 | 2.12
14 | B6 | 2.24
15 | B7 | −1.72
16 | B8 | −1.96

Each molecule was assayed on WT MEF EVs (assay: Quantitative LC-MS/MS proteomics of EVs from ISRIB-treated WT MEF cultures). Conditions: EV protein abundance, ISRIB-treated WT vs WT.
Format: cell-based, mouse
Set-up: key to ISRIB and DYT Parallel Direction / ISRIB and DYT Parallel Direction, Ctdsp1 / ISRIB and DYT Parallel Direction, Pcdh19 / ISRIB and DYT Parallel Direction, Tspan7 / ISRIB and DYT Parallel Direction, Myo1e / ISRIB and DYT Parallel Direction, Plpp3 / ISRIB and DYT Parallel Direction, Sh3bp4 / ISRIB and DYT Parallel Direction, Dnajc7 / ISRIB and DYT Parallel Direction, Drg1 / ISRIB and DYT Parallel Direction, Maea: YES = protein abundance effect similar to DYT/WT

Row | Molecule | WT + ISRIB/WT Cohen's d
17 | B1 | −0.96
18 | B2 | 0.64
19 | B3 | −3.65
20 | B4 | 0.71
21 | B5 | −0.28
22 | B6 | −1.08
23 | B7 | 3.88
24 | B8 | 0.14

Same assay, conditions: EV protein abundance, WT + ISRIB vs WT, direction compared with DYT/WT

Row | Molecule | ISRIB and DYT Parallel Direction
25 | B1 | YES
26 | B2 | YES
27 | B3 | YES
28 | B4 | YES
29 | B5 | YES
30 | B6 | YES
31 | B7 | YES
32 | B8 | YES
